Measurements published in article PMC8352940 (Nature Communications, 2021).
Positions count from the first letter of the chain named.

Legend:
[1] = target: SARS-CoV-2 RBD-Fc fusion protein (SARS-CoV-2, UniProt P0DTC2); assay: ELISA; conditions: both partners purified
[2] = target: SARS-CoV-2 RBD without the Fc fragment (SARS-CoV-2, UniProt P0DTC2); assay: ELISA; conditions: both partners purified

B1: nCoVFab1 (Fab, V domains shown)
VH: QVQLVESGGGLVQPGGSLRLSCAASGFTVSSNYMSWVRQAPGKGLEWVSVIYSGGSTYYADSVKGRFTISRDNSKNTLYLQMNSLRAEDTAVYYCARGDGSDDYYYGMDVWGQGTTVTVSS
VL: QSVVTQPPSVSGAQGQRVFISCTGNGANIGMGYDVHWYQQLPGRAPKLLIFGNTNRPSGVPDRFSASRSGTSASLAITGLQTADEADYYCQSYDGNLRASVFGGGTKLTVL
notes: source: E. coli strain HB2151, purified (nickel-nitrilotriacetic acid resin)
- EC50 [1]: ~16 nM

B2: nCoVmab1_(gHgL) (antibody, V domains shown)
VH: B1 VH with Q1E, D102Y, D103Y
VL: QSVVTQPPSVSGAPGQRVTISCTGSSSNIGAGYDVHWYQQLPGTAPKLLIYGNSNRPSGVPDRFSGSKSGTSASLAITGLQAEDEADYYCQSYDSSLSGWVFGGGTKLTVL
- binding result [2]: no binding

B3: nCoVmab1 (antibody, V domains shown)
VH: B1 VH
VL: B1 VL
notes: also called nCoVFab1 in IgG1 format; source: 293F cells, purified (Protein A resin)
- EC50 [2]: 0.56 nM

B4: nCoVmab1gFR (antibody, V domains shown)
VH: B1 VH with Q1E
VL: B2 VL with S26G, S27A, A31M, S54T, S95G, S96N, S98R, G99A, W100S
- binding result [2]: binds

B5: nCoVmab2 (antibody, V domains shown)
VH: B1 VH with Q1E, E6Q, L11V, G16R
VL: B2 VL with S2A, V4L, P8S, I29V, W100S
notes: also called nCoVFab2 in IgG1 format; source: 293F cells, purified (Protein A resin)
- EC50 [2]: 0.84 nM

B6: nCoVmab1_(gHmL) (antibody, V domains shown)
VH: B1 VH with Q1E, D102Y, D103Y
VL: B1 VL
- binding result [2]: no binding

B7: nCoVFab2 (Fab, V domains shown)
VH: B1 VH with Q1E, E6Q, L11V, G16R
VL: B2 VL with S2A, V4L, P8S, I29V, W100S
notes: as for B1
- EC50 [1]: ~63 nM
